Reference: article PMC8919572

Assays:
[1] = target: Dual Signaling Protein 107 (DSP107) (human) (UniProt P78324); experiment: SEC-MALS; purified DSP107 in solution
[2] = target: human CD47:Fc protein (human) (UniProt Q08722); experiment: ELISA; dual-binding ELISA: human CD47:Fc as capture, DSP107 titrated, human biotinylated-4-1BB as detector; three separately produced batches of DSP107
[3] = target: 4-1BB on HT1080.4-1BB cells (UniProt Q07011); experiment: cell doublet formation by flow cytometry; mixed CFSE stained CHO.CD47 and CytoLightRed stained HT1080.4-1BB cells with 5 μg/ml DSP107; doublets as double-positive events; blocking with CD47 mAb or soluble 4-1BBL
[4] = target: human CD47 expressed on CHO-K1 cells (human) (UniProt Q08722); experiment: as above
[5] = target: human CD47 (surface plasmon resonance) (human) (UniProt Q08722); experiment: SPR; orientation and conditions not given (Table S2, supplementary methods)
[6] = target: cynomolgus 4-1BB (cynomolgus); experiment: as above
[7] = target: cynomolgus CD47 (cynomolgus); experiment: as above
[8] = target: human 4-1BB (surface plasmon resonance) (human) (UniProt Q07011); experiment: as above
human 4-1BB (surface plasmon resonance) (human), sequence (Q07011 24-255): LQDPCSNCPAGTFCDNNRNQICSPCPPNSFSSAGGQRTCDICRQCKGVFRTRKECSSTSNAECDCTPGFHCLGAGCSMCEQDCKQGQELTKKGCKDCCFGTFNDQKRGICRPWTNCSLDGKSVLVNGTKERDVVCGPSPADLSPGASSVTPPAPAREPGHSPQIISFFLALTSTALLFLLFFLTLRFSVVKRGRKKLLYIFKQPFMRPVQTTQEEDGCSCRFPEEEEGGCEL

human CD47 (surface plasmon resonance) (human), sequence (Q08722 19-323): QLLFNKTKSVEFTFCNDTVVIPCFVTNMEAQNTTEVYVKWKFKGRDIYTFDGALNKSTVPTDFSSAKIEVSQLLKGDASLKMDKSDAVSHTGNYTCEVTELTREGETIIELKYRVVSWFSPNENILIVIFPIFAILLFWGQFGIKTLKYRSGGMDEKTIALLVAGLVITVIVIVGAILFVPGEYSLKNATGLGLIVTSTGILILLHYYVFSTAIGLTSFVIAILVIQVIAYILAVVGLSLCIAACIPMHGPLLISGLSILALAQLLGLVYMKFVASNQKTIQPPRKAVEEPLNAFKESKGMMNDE
human CD47 expressed on CHO-K1 cells (human), sequence (Q08722 19-323): as above
4-1BB on HT1080.4-1BB cells, sequence (Q07011 24-255): as the sequence (Q07011 24-255) above

For “Dual Signaling Protein 107 (DSP107) (from UniProt P78324 31-373; P41273 50-254)”, the stoichiometry N [1] was 3, the EC50 [2] was 0.94 nM and the percent doublets of CHO-K1.CD47 and HT1080.4-1BB cells [3] was 25%. The percent doublets of CHO-K1.CD47 and HT1080.4-1BB cells [4] was 25%, the Kd [5] was 1.17 nM and the Kd [6] was 0.34 nM. It also gave a Kd [7] of 1.75 nM and a Kd [8] of 0.7 nM.
